The text below walks through data of paper PMC5662769, “A-ZIP53, a dominant negative reveals the molecular mechanism of heterodimerization between bZIP53, bZIP10 and bZIP25 involved in Arabidopsis seed maturation” (Scientific Reports, 2017).

The nature of data set [1]: CD thermal denaturation; protein alone, 2 µM dimer, ellipticity at 222 nm, heated from 6–85 °C, two-state fit; KD at 25 °C calculated from ΔGDi; dimer to monomers. Conditions: other: CD thermal denaturation.
Data set [2] has as its target bZIP10 DNA binding domain and leucine zipper region (V216-S301) (Arabidopsis thaliana). Described as above.
For data set [3] the target is unchanged. Briefly: native MS; ESI-MS in unbuffered MS grade water, 2 µM homodimer, 4 µM heterodimer mixtures, samples kept at 23 ± 2 °C, ion spray interface temperature switched off, declustering potential 10 V.
Another data set deals with Q9M1G6. Nature of the data set: CD thermal denaturation; protein alone, 2 µM dimer, ellipticity at 222 nm, heated from 6–85 °C, two-state fit; KD at 25 °C calculated from ΔGDi; dimer to monomers. Particulars: other: CD thermal denaturation.
Data set [4] deals with the molecule itself. The description is as above.
Data set [5] concerns the molecule itself. Briefly: native MS; ESI-MS in unbuffered MS grade water, 2 µM homodimer, 4 µM heterodimer mixtures, samples kept at 23 ± 2 °C, ion spray interface temperature switched off, declustering potential 10 V.
A further data set concerns the target Q9LZP8. Briefly: CD thermal denaturation; protein alone, 2 µM dimer, ellipticity at 222 nm, heated from 6–85 °C, two-state fit; KD at 25 °C calculated from ΔGDi; dimer to monomers. Conditions: other: CD thermal denaturation.
Data set [6] concerns the target T1, bZIP25 DNA binding domain and leucine zipper region (V230-S322) (Arabidopsis thaliana (Mouse-ear cress), UniProt Q9M1G6).
T1 chain: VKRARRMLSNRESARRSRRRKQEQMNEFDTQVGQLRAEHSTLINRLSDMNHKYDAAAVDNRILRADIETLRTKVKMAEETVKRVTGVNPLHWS
Briefly: CD thermal denaturation (222 nm) of equimolar mix versus sum curve, plus ESI-MS; absence of DNA; the paper concludes heterodimerization is DNA-mediated (synergistic reporter activation in protoplasts).

The next data set addresses Q9SJN0. Nature of the data set: CD thermal denaturation; protein alone, 2 µM dimer, ellipticity at 222 nm, heated from 6–85 °C, two-state fit; KD at 25 °C calculated from ΔGDi; dimer to monomers. Conditions: other: CD thermal denaturation.

A word on the Kd: it is a measure of binding affinity in units of concentration. The term stoichiometry N denotes a count of units in the complex or per binding partner.

As to “bZIP72 DNA binding domain and leucine zipper region (D48-T150)”, the dH (ΔHm, at Tm) in data set [1] is -57.3 kcal/mol.
“bZIP10 DNA binding domain and leucine zipper region (V216-S301) (domain or fragment)”: the Kd in data set [2] is 3 nM. Further, the stoichiometry N in data set [3] came out at 2.
Consider “bZIP10 DNA binding domain and leucine zipper region (V216-S301)”, for which, in data set [1], the dH (ΔHm, at Tm) is -41.1 kcal/mol.

B1: bZIP25 DNA binding domain and leucine zipper region (V230-S322) (domain or fragment, Arabidopsis thaliana, UniProt Q9M1G6 230-322, looked up)
chain: T1 chain
notes: In the protoplast reporter assays the full-length protein was expressed from a plasmid; source: E. coli BL21 (DE-3), HPLC purified
Turning to B1, in the data set with Q9M1G6, the dH (ΔHm, at Tm) is -55.3 kcal/mol. Moreover, the Kd in data set [4] was 0.05 nM. Further, in data set [5], the “stoichiometry N” value worked out at 2.

B2: bZIP53 DNA binding domain and leucine zipper region (Y18-D116) (domain or fragment, Arabidopsis thaliana, UniProt Q9LZP8 18-116, looked up)
chain: YATVTDERKRKRMISNRESARRSRMRKQKQLGDLINEVTLLKNDNAKITEQVDEASKKYIEMESKNNVLRAQASELTDRLRSLNSVLEMVEEISGQALD
notes: An internal HindIII site of the amplicon was destroyed by site-directed mutagenesis; Measured monomer mass 12957 Da; In the protoplast reporter assays the full-length protein was expressed from a plasmid; also called basic leucine zipper 53; source: E. coli BL21 (DE-3), HPLC purified
As to B2, the dH (ΔHm, at Tm) in the data set with Q9LZP8 was -35.5 kcal/mol. Besides, the dissociation constant Kd in [4] was 50 nM. For the same molecule, the “stoichiometry N” value in data set [5] came to 2. Besides, the binding result in [6] was “no binding”.

B3: bZIP39 DNA binding domain and leucine zipper region (V351-L442) (protein)
chain: VEKVVERRQRRMIKNRESAARSRARKQAYTVELEAELNQLKEENAQLKHALAELERKRKQQYFESLKSRAQPKLPKSNGRLRTLMRNPSCPL
As to B3, in the data set with Q9SJN0, the dH (ΔHm, at Tm) was -43.2 kcal/mol.
